± gives the standard error. For some of these results: Fewer inactive variants are shown than the library holds.
B1: glmS ribozyme (parent)
chain: AUAAAAGCGCCAGAACUACAGAAAUGUAGUUGACGAGGAGGAGGUUUAUCGAAUUUUCGGCGGAUGCCUCCAAA

What was measured:
Settings in all cases: with glucosamine-6-phosphate
[1] = variants of: B1; experiment: kcat; higher = faster cleavage; RNA array
Procedure, shortened: (§1)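 Weighted Michaelis–Menten fits across concentrations supplied kcat and KM, based on kobs from one- or two-exponential decay fits to normalised per-tile medians. The data came from barcoded ribozyme variants transcribed in situ by E. coli RNA polymerase on sequenced MiSeq chips and tracked at 37 °C by a hybridised Cy3 probe. Glucosamine-6-phosphate (40 μM to 10 mM) in HEPES/KCl/Mg(OAc)2 buffer was flowed in.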

[2] = variants of: B1; experiment: KM; higher = weaker cofactor use; RNA array
Procedure, shortened: as §1

[3] = variants of: B1; experiment: self-cleavage kobs at 40 uM GlcN6P; higher = faster cleavage; RNA array
Procedure, shortened: as §1

[4] = variants of: B1; experiment: self-cleavage kobs at 160 uM GlcN6P; higher = faster cleavage; RNA array
Procedure, shortened: as §1

[5] = variants of: B1; experiment: self-cleavage kobs at 640 uM GlcN6P; higher = faster cleavage; RNA array
Procedure, shortened: as §1

[6] = variants of: B1; experiment: self-cleavage kobs at 2500 uM GlcN6P; higher = faster cleavage; RNA array
Procedure, shortened: as §1

[7] = variants of: B1; experiment: self-cleavage kobs at 10000 uM GlcN6P; higher = faster cleavage; RNA array
Procedure, shortened: as §1

Row | Variant | kcat [1] [s⁻¹] | KM [2] [µM] | self-cleavage kobs at 40 uM GlcN6P [3] [s⁻¹] | self-cleavage kobs at 160 uM GlcN6P [4] [s⁻¹] | self-cleavage kobs at 640 uM GlcN6P [5] [s⁻¹] | self-cleavage kobs at 2500 uM GlcN6P [6] [s⁻¹] | self-cleavage kobs at 10000 uM GlcN6P [7] [s⁻¹]
1 | A52C | 2.8e-05 ± 8.9e-07 | 835 ± 150 | < 1e-05 | < 1e-05 | 1.03e-05 ± 3.3e-06 | 2.17e-05 ± 1.5e-06 | 2.56e-05 ± 1.3e-06
2 | A52G | 0.00319 ± 0.00046 | 4410 ± 790 | 3.36e-05 ± 1e-06 | 0.000104 ± 3.3e-06 | 0.000385 ± 9.1e-06 | 0.00127 ± 5.6e-05 | 0.0022 ± 6.2e-05
3 | A52U | 0.000465 ± 1.7e-05 | 2960 ± 200 |  | 2.13e-05 ± 1.9e-06 | 8.16e-05 ± 1.8e-06 | 0.000223 ± 4.8e-06 | 0.000355 ± 5.5e-06
4 | U54C G63U | < 1e-05 |  |  |  | < 1e-05 |  | 
5 | U56A U57A | 0.000351 ± 3.9e-05 | 3720 ± 820 |  |  | 4.44e-05 ± 1.7e-05 | 0.000155 ± 3.3e-05 | 0.00025 ± 4.4e-05
6 | U55G C68G | 9.78e-05 ± 1e-05 | 345 ± 170 |  |  | 6.54e-05 ± 1.3e-05 | 7.64e-05 ± 1.5e-05 | 0.000104 ± 1.7e-05
7 | U54G C68U C70A | 6.79e-05 ± 7.7e-06 |  |  |  |  |  | 6.28e-05 ± 1.4e-05
8 | U56G A64G | 0.0177 ± 0.0051 | 2680 ± 1000 | 0.000369 ± 6.8e-05 | 0.000896 ± 0.00017 | 0.00313 ± 0.00055 | 0.00817 ± 0.0015 | 0.0156 ± 0.0037
9 | A52G U69C | 0.000343 ± 3.8e-05 | 425 ± 160 |  |  | 0.000215 ± 4.5e-05 | 0.000269 ± 5.7e-05 | 0.000381 ± 0.00011
10 | A52C C68A | 2.96e-05 ± 7.8e-06 |  |  |  | 3.82e-05 ± 1.2e-05 | 3.05e-05 ± 1.2e-05 | 
11 | A53C C70G | 8.19e-05 ± 3.8e-06 | 438 ± 110 |  |  | 5.26e-05 ± 9.1e-06 | 6.51e-05 ± 9.9e-06 | 7.97e-05 ± 7.3e-06
12 | A53U U69G | 6.8e-05 ± 1.2e-05 |  |  | 6.15e-05 ± 1.2e-05 | 4.69e-05 ± 1.2e-05 | 8.29e-05 ± 9.4e-06 | 4.84e-05 ± 1.2e-05
13 | U55G G60U G63A G66C | 1.16e-05 ± 1e-06 |  |  |  |  | < 1e-05 | 
14 | U54C U55C | 0.014 ± 0.0045 | 2720 ± 1100 | 0.000294 ± 4.1e-05 | 0.000636 ± 8.9e-05 | 0.00279 ± 0.00037 | 0.00663 ± 0.0011 | 0.0111 ± 0.0019
15 | U54C A64U | 7.19e-05 ± 1e-05 |  |  |  |  | 5.96e-05 ± 1.3e-05 | 6.16e-05 ± 1.3e-05
16 | A52U A53G | 0.000144 ± 7.6e-06 | 2980 ± 430 | < 1e-05 |  | 3.11e-05 ± 1.3e-05 | 6.31e-05 ± 9.5e-06 | 0.000111 ± 1e-05
17 | A53U U57C | 0.000173 ± 5.9e-06 | 1360 ± 210 |  |  |  | 0.000115 ± 2.1e-05 | 0.000151 ± 1.8e-05

Row | Variant | kcat [1] [s⁻¹] | KM [2] [µM] | self-cleavage kobs at 40 uM GlcN6P [3] [s⁻¹] | self-cleavage kobs at 160 uM GlcN6P [4] [s⁻¹] | self-cleavage kobs at 640 uM GlcN6P [5] [s⁻¹] | self-cleavage kobs at 2500 uM GlcN6P [6] [s⁻¹] | self-cleavage kobs at 10000 uM GlcN6P [7] [s⁻¹]
18 | G51U C58U | < 1e-05 |  |  | < 1e-05 |  |  | < 1e-05
19 | U55G G60C | < 1e-05 |  |  | < 1e-05 |  |  | 
20 | U55A U65C | 0.000613 ± 6.7e-05 | 1160 ± 230 |  | 7.83e-05 ± 1.4e-05 | 0.0002 ± 2.9e-05 | 0.000471 ± 6.1e-05 | 0.000505 ± 9.2e-05
21 | U56G C58U | 0.000147 ± 7.7e-06 | 6310 ± 710 |  |  |  | 4.08e-05 ± 8.6e-06 | 9.06e-05 ± 8e-06
22 | A52U U57A | 0.00351 ± 0.00067 | 5900 ± 1500 |  | 9.27e-05 ± 1.9e-05 | 0.000344 ± 6.8e-05 | 0.00123 ± 0.00025 | 0.00213 ± 0.00033
23 | A52U U57G | 5.28e-05 ± 9.7e-06 |  | < 1e-05 |  |  |  | 4.88e-05 ± 7.6e-06
24 | A53G A64C | 0.000207 ± 2.2e-05 | 1870 ± 470 |  |  | 5.95e-05 ± 9.6e-06 | 0.000109 ± 1.4e-05 | 0.000181 ± 1.9e-05
25 | A53G A64U | 0.000128 ± 1e-05 | 2590 ± 630 |  |  | 3.12e-05 ± 9.7e-06 | 5.65e-05 ± 1.1e-05 | 0.000103 ± 9.5e-06
26 | U55A C68G | 8.49e-05 ± 3.5e-06 | 51.2 ± 14 | 3.36e-05 ± 1e-05 | 6.64e-05 ± 1e-05 | 8.75e-05 ± 1.2e-05 | 8.44e-05 ± 1.1e-05 | 8.04e-05 ± 7.4e-06
27 | A52C U57C | 3.44e-05 ± 6.5e-06 |  |  |  |  | 4.64e-05 ± 1.6e-05 | 2.95e-05 ± 1e-05
28 | A53C C58U | 3.83e-05 ± 9.3e-06 |  | < 1e-05 | < 1e-05 |  |  | 
29 | A53C C58G | 1.56e-05 ± 5.2e-06 |  |  |  |  |  | 
30 | A53C C58A | 5.04e-05 ± 1.4e-05 |  |  |  |  | 1.94e-05 ± 7.6e-06 | 3.91e-05 ± 8.6e-06
31 | U56A G66C | 0.000237 ± 5.7e-05 |  |  |  | 0.000107 ± 1.6e-05 | 0.000132 ± 3.9e-05 | 0.000238 ± 4.6e-05
32 | U55G U69A | 0.000144 ± 3.5e-05 |  | 4.44e-05 ± 1.1e-05 | 7.03e-05 ± 9.5e-06 | 0.00015 ± 1.9e-05 | 0.00021 ± 2.3e-05 | 9.83e-05 ± 1.7e-05
33 | A52G C70G | 6.89e-05 ± 3.6e-06 | 65.2 ± 26 |  | 5.53e-05 ± 1e-05 | 5.76e-05 ± 1.2e-05 | 6.23e-05 ± 7.9e-06 | 7.2e-05 ± 6.7e-06
